Laboratory results: article PMC5228590

Molecular target: vimentin (mouse (endogenous in MC-3T3 and in primary calvarial osteoblasts of C57/B6J mice)) (UniProt P20152)
Assay: co-IP

vimentin (mouse (endogenous in MC-3T3 and in primary calvarial osteoblasts of C57/B6J mice)), sequence (P20152 whole entry): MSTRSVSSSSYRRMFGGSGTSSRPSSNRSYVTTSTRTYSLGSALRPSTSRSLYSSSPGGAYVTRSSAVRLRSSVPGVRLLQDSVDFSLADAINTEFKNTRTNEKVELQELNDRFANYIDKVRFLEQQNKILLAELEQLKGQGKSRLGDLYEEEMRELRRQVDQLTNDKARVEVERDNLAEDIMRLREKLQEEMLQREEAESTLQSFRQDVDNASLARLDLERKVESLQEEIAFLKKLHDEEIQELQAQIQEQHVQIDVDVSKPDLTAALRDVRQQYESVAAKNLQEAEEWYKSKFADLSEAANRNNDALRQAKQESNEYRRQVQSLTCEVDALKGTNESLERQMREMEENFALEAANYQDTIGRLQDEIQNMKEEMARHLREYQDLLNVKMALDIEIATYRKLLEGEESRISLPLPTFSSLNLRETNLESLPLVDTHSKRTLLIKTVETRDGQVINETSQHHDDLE

With “receptor protein tyrosine phosphatase β, B9EKR1 25-2312” as the substance, how does the fold increase of the association with IGF-I read?
The fold increase of the association with IGF-I was 6.7 fold.

And the percent reduction of the association with the PKCζ pseudosubstrate inhibitor?
The percent reduction of the association with the PKCζ pseudosubstrate inhibitor was 62%.
